The chains are these.
B1: Platelet-activating factor acetylhydrolase IB subunit beta (Homo sapiens), P43034 (parent)
chain: MVLSQRQRDELNRAIADYLRSNGYEEAYSVFKKEAELDVNEELDKKYAGLLEKKWTSVIRLQKKVMELESKLNEAKEEFTSGGPLGQKRDPKEWIPRPPEKYALSGHRSPVTRVIFHPVFSVMVSASEDATIKVWDYETGDFERTLKGHTDSVQDISFDHSGKLLASCSADMTIKLWDFQGFECIRTMHGHDHNVSSVAIMPNGDHIVSASRDKTIKMWEVQTGYCVKTFTGHREWVRMVRPNQDGTLIASCSNDQTVRVWVVATKECKAELREHEHVVECISWAPESSYSSISEATGSETKKSGKPGPFLLSGSRDKTIKMWDVSTGMCLMTLVGHDNWVRGVLFHSGGKFILSCADDKTLRVWDYKNKRCMKTLNAHEHFVTSLDFHKTAPYVVTGSVDQTVKVWECR
partner: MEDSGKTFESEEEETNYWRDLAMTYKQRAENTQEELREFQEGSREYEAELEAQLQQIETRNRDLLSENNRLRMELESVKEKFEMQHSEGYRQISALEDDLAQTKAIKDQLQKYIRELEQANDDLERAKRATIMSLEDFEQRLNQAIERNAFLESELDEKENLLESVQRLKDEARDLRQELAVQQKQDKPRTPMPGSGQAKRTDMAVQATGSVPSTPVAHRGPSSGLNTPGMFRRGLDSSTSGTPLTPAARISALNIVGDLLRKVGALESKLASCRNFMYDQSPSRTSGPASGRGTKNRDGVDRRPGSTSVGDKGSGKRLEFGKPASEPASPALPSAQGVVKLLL

The variants in the assay derive from B1. To be noted: with nde1_mouse Nde1, Q9CZA6.
With MVLSQRQRDELNRAIADYLRSNGYEEAYSVFKKEAELDVNEELDKKYAGLLEKKWTSVIRLQKKVMELESKLNEAKEEFTSGGPLGQKRDPKEWIPRPPEKYALSGHRSPVTRVIFHPVFSVMVSASEDATIKVWDYETGDFERTLKGHTDSVQDISFDHSGKLLASCPADMTIKLWDFQGFECIRTMHGHDHNVSSVAIMPNGDHIVSASRDKTIKMWEVQTGYCVKTFTGHREWVRMVRPNQDGTLIASCSNDQTVRVWVVATKECKAELREHEHVVECISWAPESSYSSISEATGSETKKSGKPGPFLLSGSRDKTIKMWDVSTGMCLMTLVGHDNWVRGVLFHSGGKFILSCADDKTLRVWDYKNKRCMKTLNAHEHFVTSLDFHKTAPYVVTGSVDQTVKVWECR [S169P], the “effect of a mutation on the interaction” value is on record as “decreasing interaction”.
Turning to MVLSQRQRDELNRAIADYLRSNGYEEAYSVFKKEAELDVNEELDKKYAGLLEKKWTSVIRLQKKVMELESKLNEAKEEFTSGGPLGQKRDPKEWIPRPPEKYALSGHRSPVTRVIFHPVFSVMVSASEDATIKVWDYETGDFERTLKGRTDSVQDISFDHSGKLLASCSADMTIKLWDFQGFECIRTMHGHDHNVSSVAIMPNGDHIVSASRDKTIKMWEVQTGYCVKTFTGHREWVRMVRPNQDGTLIASCSNDQTVRVWVVATKECKAELREHEHVVECISWAPESSYSSISEATGSETKKSGKPGPFLLSGSRDKTIKMWDVSTGMCLMTLVGHDNWVRGVLFHSGGKFILSCADDKTLRVWDYKNKRCMKTLNAHEHFVTSLDFHKTAPYVVTGSVDQTVKVWECR [H149R], the “effect of a mutation on the interaction” value is reported as “decreasing interaction”.

The record behind these values is IntAct's records for PubMed 11163258.
